What was measured:
[1] = PGE2 competition ELISA, format not stated (biotin-PGE2 or ^3H-PGE2); assay type: binding; conditions: humanized antibodies table
Description: Competition enzyme linked immunosorbent assays were performed to determine prostaglandin binding specificity for antibodies that bind prostaglandin E2, according to at least one of the two following methods.
ELISA plates (Costar 3369, Corning, N.Y.) were coated with 50 μl/well of anti-host Fc IgG (Sigma, St. Louis, Mo.) at 2 μg/ml in PBS (Invitrogen, Carlsbad, Calif.). Following an overnight incubation at 4° C., the plate was blocked with 200 μl Superblock (Pierce #37535, Rockford, Ill.). The IgG samples were diluted to 6 μg/ml in Assay Buffer (10% Superblock in PBS containing 0.05% Surfactamps (Pierce #37535, Rockford, Ill.). The PGE2-biotinamide was diluted to 3 nM in Assay Buffer. A titration curve in Assay Buffer was prepared for the prostaglandins PGA2 (Cayman Chemicals, Ann Arbor, Mich.), PGD2 (Cayman Chemicals, Ann Arbor, Mich.) and PGE2 (Cayman Chemicals, Ann Arbor, Mich.) starting at 300 nM by a 1:10 serial dilution. The reagents were added to tubes at a volume of 50 μl each/tube and preincubated for 1 hour at room temperature. Following the preincubation, the mix was transferred to the blocked plates and allowed to incubate for 1 hour at room temperature. Next, the plates were washed four times with Tween 20-Tris buffered solution (TTBS). Streptavidin polyhrp40 in Assay Buffer (Fitzgerald Industries, Concord, Mass.) at a 1:5000 dilution was then added to the wells and incubated for 45 minutes at room temperature. A final wash step was performed and the plates were developed using a single step TMB system (Sigma #T8665, Sigma, St. Louis, Mo.) and 100 μl/well 2N H2SO4. Plates were read at 450 nm on a Molecular Devices Spectramax plate reader (Sunnyvale, Calif.). […] IC50 number was determined using GraphPad Prism 5 (GraphPad Software, La Jolla, Calif.). The cross reactivity index was then calculated by IC50 of PGE2/IC50 of other prostaglandin(s).
Alternatively, prostaglandin selectivity was determined using a ^3H-PGE2 competition ELISA. Plates were coated with 50 μL/well of 5 μg/ml of goat anti-human IgG (Fc) (Thermo Scientific # 31170, Hudson, N.H.) or goat anti-mouse IgG (Fc) (Thermo Scientific # 31125, Hudson, N.H.) in PBS and incubated overnight at 4° C. The following day plates were flicked and blotted dry. Plates were blocked with 200 μL/well of Superblock (Thermo Scientific # 37515, Hudson, N.H.), 1 hour at room temperature. Plates were flicked and blotted dry. Monoclonal antibodies were diluted to 0.04 μg/ml in PBST (Abbott Bioresearch Center, Worcester, Mass.)/10% Superblock and 50 μL of each was added to each well (2 ng/well) of the pre-blocked ELISA plate and incubated for 1 hour at room temperature. Wells were washed 3 times with PBS/0.1% Tween-20. ^3H-PGE2 (Perkin Elmer # NET-428, Waltham, Mass.) was diluted in PBST/10% Superblock to 6 nM (2× stock). Each prostaglandin (Cayman Chemicals, Ann Arbor, Mich.) was prepared in PBST+10% Superblock at various concentrations ranging from 2000 μM (2× stock) to 0.00004 μM (2×). Equal volumes of the ^3H-PGE2 solution and of each prostaglandin dilution were mixed. Fifty microliters of this mixture was then added to each well of the plate and incubated for 1 hour at room temperature. Wells were washed manually 6 times with PBST/10% Superblock and 50 μL of scintillation fluid (Perkin Elmer # 6013621, Waltham, Mass.) added to each well. Plates were read using a TopCount reader (Perkin Elmer, Waltham, Mass.) with a 5 minute count delay. IC50 number was determined using GraphPad Prism 5 (GraphPad Software, La Jolla, Calif.). The cross reactivity index was then calculated by IC50 of PGE2/IC50 of other prostaglandin(s)
Several antibodies, named 19C9, 4F10 and 15F10 specific for PGE2 were isolated. […] The specificity of these antibodies for PGE2 was further determined by a competition ELISA with various prostaglandins as described in Example 1.B (Table 2). […]

[2] = Biotin-PGE2 ELISA (PGE2-biotinamide binding to captured IgG)
[3] = Intrinsic thermodynamic stability by DSC; assay type: physicochemical; conditions: for Tm1 (° C.): 0.79 mg/mL, pH 6, 10 mM citrate, 10 mM phosphate; for Tm2 (° C.) / Tm3 (° C.): same buffer
Description: The thermal stability of the anti-PGE2 antibodies was assessed using a DSC instrument. The DSC instrument used was an automated VP-DSC equipment with Capillary Cell (Microcal, GE Healthcare Ltd./Microcal, Buckinghamshire, UK). Unfolding of molecules was studied applying a 1° C./minute scan rate over a 25° C.-95° C. temperature range for samples at 1 mg/mL. Additional measurement parameters applied were a fitting period of 16 seconds, a pre-scan wait time of 10 minutes, and measurements were performed in none-feedback mode. Per individual measurement, 420 μL of sample/blank were filled into the DSC measurement sample holder, with a plate fill scheme as provided below. The thermograms obtained were fitted to a non two state model to obtain the midpoint temperatures and enthalpies of the different transitions.
(§1) The stability of a series of clones (i.e., anti-PGE2 antibodies) of the parent anti-PGE2 antibody was assessed by using intrinsic thermodynamic clone stability determination using DSC (0.79 mg/mL clone concentration, formulated at pH 6 in a 10 mM citrate, 10 mM phosphate buffer) and by accelerated stability screening (0.79 mg/mL clone concentration, formulated at pH 6 in a 10 mM citrate, 10 mM phosphate buffer, for 7 days at 50° C.) where clone stability was monitored with SEC (Table 15).

[4] = Accelerated stability screening monitored by SEC; assay type: physicochemical; conditions: SEC
Description: Size exclusion chromatography was used to separate proteins based on size. Proteins are carried in an aqueous mobile phase and through a porous stationary phase resin packed in a column. The retention time in the column is a function of the hydrodynamic size of the protein and the size of the pores in the packed resin bed. Smaller molecules can penetrate into smaller pores in the resin and are retained longer than larger molecules. Upon elution from the column the proteins are detected by UV absorbance. The SEC method used a TSK gel guard (TOSOH Biosciences, Montgomeryville, Pa., cat. no. 08543) and a TSK gel G3000SWxL (TOSOH Biosciences, Montgomeryville, Pa., cat. no. 08541). The mobile phase was 100 mM Na2HPO4, 200 mM Na2SO4, pH 7.0. The flow rate was 0.3 mL/minute. Injection volume was 20 μL of 1 mg/mL sample. The column temperature was room temperature. The autosampler temperature was 2-8° C. The total run time was 50 minutes. The detection was based on UV absorbance at 214 nm wavelength, with band width set at 8 nm, using reference wavelength at 360 nm with band width 100 nm.
as §1

[5] = start of stability study, 0.79 mg/mL, pH 6

Row | EC50 [2] | Molecule | Cross Reactivity Index (%) PGA2 [1] | Cross Reactivity Index (%) PGD2 [1] | Cross Reactivity Index (%) PGE1 [1] | Tm1 (° C.) [3] | Tm2 (° C.) [3] | Tm3 (° C.) [3] | Aggregate (%) ([4]; 7 days storage at 50° C.) | Fragment (%) ([4]; 7 days storage at 50° C.) | Monomer (%) ([4]; 7 days storage at 50° C.) | Fragment (%) ([4]; start of stability study) | Monomer (%) ([4]; start of stability study) | Aggregate (%) [4, 5]
1 | 87 pM | Hu2B5.8: humanized 2B5-8.0; VH SEQ ID NO 74, VL SEQ ID NO 75 (antibody, V domains shown) VH: EVQLVQSGAEVKKPGASVKVSCKASGYTFTKYWLGWVRQAPGQGLEWMGDIYPGYDYTHYNEKFKDRVTLTTDTSTSTAYMELSSLRSDDTAVYYCARSDGSSTYWGQGTLVTVSS VL: DVLMTQTPLSLPVTPGEPASISCTSSQNIVHSNGNTYLEWYLQKPGQSPQLLIYKVSNRFSGVPDRFSGSGSGTDFTLKISRVEAEDVGVYYCFQVSHVPYTFGGGTKVEIKR | 0.20% | <0.01% | 8.5% | 72.96 °C | 75.33 °C | 82.83 °C | 2.5144% | 4.184% | 93.3016% | 3.2904% | 94.5969% | 2.1126%
2 | 59 pM | Hu2B5.3: humanized 2B5-8.0; VH SEQ ID NO 64, VL SEQ ID NO 65 (antibody, V domains shown) VH: EVQLVQSGAEVKKPGASVKVSCKASGYTFTKYWLGWVRQAPGQGLEWIGDIYPGYDYTHYNEKFKDRATLTVDTSTSTAYMELRSLRSDDTAVYYCARSDGSSTYWGQGTLVTVSS VL: DVLMTQTPLSLPVTPGEPASISCTSSQNIVHSNGNTYLEWYLQKPGQSPQLLIYKVSNRFSGVPDRFSGSGSGTDFTLKISRVEAEDVGVYYCFQVSHVPYTFGGGTKVEIKR | 0.18% | <0.01% | 14% | 72.67 °C | 72.96 °C | 82.67 °C | 2.6042% | 5.044% | 92.3518% | 3.6853% | 94.1987% | 2.116%
3 | 57 pM | Hu2B5.4: humanized 2B5-8.0; VH SEQ ID NO 66, VL SEQ ID NO 67 (antibody, V domains shown) VH: EVQLVQSGAEVKKPGASVKVSCKASGYTFTKYWLGWVRQAPGQGLEWIGDIYPGYDYTHYNEKFKDRATLTVDTSTSTAYMELSSLRSDDTAVYYCARSDGSSTYWGQGTLVTVSS VL: DVLMTQTPLSLPVTPGEPASISCTSSQNIVHSNGNTYLEWYLQKPGQSPQLLIYKVSNRFSGVPDRFSGSGSGTDFTLKISRVEAEDVGVYYCFQVSHVPYTFGGGTKVEIKR | 0.22% | <0.01% | 14% | 71.095 °C | 72.41 °C | 82.58 °C | 2.1689% | 6.5423% | 91.2889% | 3.2146% | 94.5513% | 2.234%

Further lines, the molecule ahead of its results:

Row | Molecule | EC50 [2] | Cross Reactivity Index (%) PGA2 [1] | Cross Reactivity Index (%) PGD2 [1] | Cross Reactivity Index (%) PGE1 [1] | Tm1 (° C.) [3] | Tm2 (° C.) [3] | Tm3 (° C.) [3] | Aggregate (%) ([4]; 7 days storage at 50° C.) | Fragment (%) ([4]; 7 days storage at 50° C.) | Monomer (%) ([4]; 7 days storage at 50° C.) | Fragment (%) ([4]; start of stability study) | Monomer (%) ([4]; start of stability study) | Aggregate (%) [4, 5]
4 | Hu2B5.1: humanized 2B5-8.0; VH SEQ ID NO 60, VL SEQ ID NO 61 (antibody, V domains shown) VH: EVQLVQSGAEVKKPGASVKVSCKASGYTFTKYWLGWVRQAPGQGLEWIGDIYPGYDYTHYNEKFKDRATLTVDTSTSTAYMELRSLRSDDTAVYYCARSDGSSTYWGQGTLVTVSS VL: DVVMTQTPLSLPVTPGEPASISCTSSQNIVHSNGNTYLEWYLQKPGQSPQLLIYKVSNRFSGVPDRFSGSGSGTDFTLKISRVEAEDVGVYYCFQVSHVPYTFGGGTKVEIKR | 63 pM | 0.21% | <0.01% | 16% | 72.835 °C | 75.02 °C | 82.785 °C | 2.5611% | 6.3675% | 91.0715% | 4.4044% | 93.7885% | 1.8071%
5 | Hu2B5.2: humanized 2B5-8.0; VH SEQ ID NO 62, VL SEQ ID NO 63 (antibody, V domains shown) VH: EVQLVQSGAEVKKPGASVKVSCKASGYTFTKYWLGWVRQAPGQGLEWIGDIYPGYDYTHYNEKFKDRATLTVDTSTSTAYMELSSLRSDDTAVYYCARSDGSSTYWGQGTLVTVSS VL: DVVMTQTPLSLPVTPGEPASISCTSSQNIVHSNGNTYLEWYLQKPGQSPQLLIYKVSNRFSGVPDRFSGSGSGTDFTLKISRVEAEDVGVYYCFQVSHVPYTFGGGTKVEIKR | 55 pM | 0.18% | <0.01% | 14% | 72.845 °C | 75.08 °C | 82.67 °C | 2.1753% | 4.6755% | 93.1491% | 3.3025% | 94.8516% | 1.846%
